From IntAct's records for PubMed 9428767

B1: Serine/threonine-protein kinase STE20 (Saccharomyces cerevisiae), Q03497 (parent)
chain: MSNDPSAVSELPDKDSLDNGISNDNERAMGGNGDGGDGLRLPRTTGTLNVNALQKGTNAAHEAGGYKSMDPAKNAETTNDDDNNVVSLDDPIQFTRVSSSSVISGMSSSMSPHSNIDETKSLEAVTPNINTSNITPDHSADNTFSTINASESDHQFNDTLLSKLSLTDSTETIENNATVKHQQPVASSTVNSNKSSTDIRRATPVSTPVISKPSMTTTPRQINSASHSLSNPKHKQHKPKVKPSKPEAKSKPVSVKKSFPSKNPLKNSSPPKKQTEKSYYSSSSKKRKSGSNSGTLRMKDVFTSFVQNIKRNSQDDKRASSSSNNSSSSSITTALRISTPYNAKHIHHVGVDSKTGEYTGLPEEWEKLLTSSGISKREQQQNMQAVMDIVKFYQDVTETNGEDKMFKTFNTTTGLPGSPQVSTPPANSFNKFPPSTSDSHNYGSRTGTPMSNHVMSPTLNTDSSSANGKFIPSRPAPKPPSSASASAPIIKSPVMNSAANVSPLKQTHAPTTPNRTSPNRSSISRNATLKKEEQPLPPIPPTKSKTSPIISTAHTPQQVAQSPKAPAQETVTTPTSKPAQARSLSKELNEKKREERERRKKQLYAKLNEICSDGDPSTKYANLVKIGQGASGGVYTAYEIGTNVSVAIKQMNLEKQPKKELIINEILVMKGSKHPNIVNFIDSYVLKGDLWVIMEYMEGGSLTDVVTHCILTEGQIGAVCRETLSGLEFLHSKGVLHRDIKSDNILLSMEGDIKLTDFGFCAQINELNLKRTTMVGTPYWMAPEVVSRKEYGPKVDIWSLGIMIIEMIEGEPPYLNETPLRALYLIATNGTPKLKEPENLSSSLKKFLDWCLCVEPEDRASATELLHDEYITEIAEANSSLAPLVKLARLKKVAENMDADEDNDDDNDNEHINKTNNCDDNNDSKETVNLDVTEDDKQK
partner: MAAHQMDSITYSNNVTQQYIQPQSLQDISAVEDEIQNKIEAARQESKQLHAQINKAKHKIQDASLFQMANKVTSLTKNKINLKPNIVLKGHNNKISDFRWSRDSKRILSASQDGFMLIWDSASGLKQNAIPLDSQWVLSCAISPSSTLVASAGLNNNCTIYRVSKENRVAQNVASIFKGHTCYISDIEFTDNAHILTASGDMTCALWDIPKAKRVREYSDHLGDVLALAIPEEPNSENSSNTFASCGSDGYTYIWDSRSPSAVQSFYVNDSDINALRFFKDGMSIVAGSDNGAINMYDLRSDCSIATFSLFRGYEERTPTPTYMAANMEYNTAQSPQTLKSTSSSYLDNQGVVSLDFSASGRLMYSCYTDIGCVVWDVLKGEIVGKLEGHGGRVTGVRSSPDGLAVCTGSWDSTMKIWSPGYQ
B2: Guanine nucleotide-binding protein subunit beta (Saccharomyces cerevisiae), P18851 (parent)
chain: B1 partner
partner: B1 chain

Variants of: B1
Details: with gbb_yeast STE4, P18851

| effect of a mutation on the interaction | Variant |
| --- | --- |
| decreasing interaction | S879A;S880A;P883A |

Variants of: B2
Details: with ste20_yeast STE20, Q03497

| effect of a mutation on the interaction | Variant |
| --- | --- |
| decreasing interaction | MAAHQMDSITYSNNVTQQYIQPQSLQDISAVEDEIQNKIEAARQESKQLHAQINKAKHKIQNASLFQMANKVTSLTKNKINLKPNIVLKGHNNKISDFRWSRDSKRILSASQDGFMLIWDSASGLKQNAIPLDSQWVLSCAISPSSTLVASAGLNNNCTIYRVSKENRVAQNVASIFKGHTCYISDIEFTDNAHILTASGDMTCALWDIPKAKRVREYSDHLGDVLALAIPEEPNSENSSNTFASCGSDGYTYIWDSRSPSAVQSFYVNDSDINALRFFKDGMSIVAGSDNGAINMYDLRSDCSIATFSLFRGYEERTPTPTYMAANMEYNTAQSPQTLKSTSSSYLDNQGVVSLDFSASGRLMYSCYTDIGCVVWDVLKGEIVGKLEGHGGRVTGVRSSPDGLAVCTGSWDSTMKIWSPGYQ [D62N] |
| decreasing interaction | MAAHQMDSITYSNNVTQQYIQPQSLQDISAVEDEIQNKIEAARQESKQLHAQINDAKHKIQDASLFQMANKVTSLTKNKINLKPNIVLKGHNNKISDFRWSRDSKRILSASQDGFMLIWDSASGLKQNAIPLDSQWVLSCAISPSSTLVASAGLNNNCTIYRVSKENRVAQNVASIFKGHTCYISDIEFTDNAHILTASGDMTCALWDIPKAKRVREYSDHLGDVLALAIPEEPNSENSSNTFASCGSDGYTYIWDSRSPSAVQSFYVNDSDINALRFFKDGMSIVAGSDNGAINMYDLRSDCSIATFSLFRGYEERTPTPTYMAANMEYNTAQSPQTLKSTSSSYLDNQGVVSLDFSASGRLMYSCYTDIGCVVWDVLKGEIVGKLEGHGGRVTGVRSSPDGLAVCTGSWDSTMKIWSPGYQ [K55D] |
